Patent US20240010721A1 (HARBOUR BIOMED SHANGHAI, published 2024)
Residue numbers refer to the chain shown, from its start. Read-outs that look alike come from different tables or passages of the source.

B1: Positive control antibody (PR000374) (antibody, human IgG1, kappa, V domains shown)
VH: EVQLVESGGGLVQPGRSLRLSCTASGSDINDYPITWVRQAPGQGLEWIGFINSGGSTWYASWVKGRFTISRDDSKSIAYLQMNSLKTEDTAVYYCARGYSTYYRDFNIWGQGTLVTVSS
VL: DIQMTQSPSSLSASVGDRVTINCQASQSIDSNLAWFQQKPGQPPKLLIYRASNLASGVPDRFSGSGSGTDFTLTISSLEAEDVATYYCLGGVGAVSYRTSFGGGTKVEIKR
B2: PR001354 (antibody, human IgG1, kappa, V domains shown)
VH: QVQLVQSGGGVVQPGRSLRLSCAASGFTFSSYGMHWVRQAPGKGLEWVAIMWYDGSDKDYADSVKGRFTISRDTSKNTLYLQMNSLRAEDTAVYYCAREQARSFDLWGRGTLVTVSS
VL: DIVMTQSPSSLSASVGDRVTITCRASQTINNWLAWYQQKPGKAPKLLIYKASSLESGVPSRFSGSGSGTEFTLTISSLQPDDFATYYCQQYNSYSPMYTFGQGTKVEIKR
notes: fully human IgG1, kappa; also called anti-ROR1 1015M2-C9 hIgG1; PR001354(WT)
B3: PR001362 (antibody, V domains shown)
VH: B2 VH with Q6E, V11L, R16G, S31T, I50V, M51I, K58E, T74N, E99D
VL: B2 VL with S10T, T28S, N31S, N92K
notes: fully human IgG1, kappa

Key:
[1] = biological target: T1, human ROR1 (hROR1) on cells (human, UniProt Q01973 30-937); assay: cell-based or functional assay
[2] = biological target: T1, human ROR1 (hROR1) on cells; assay: flow cytometry (FACS) on HEK293T-hROR1 cells, antibody 0.01-100 nM, median fluorescence intensity
Procedure: (§1) The binding properties were characterized by FACS. The recombinant antibodies obtained above were serially diluted to 9 different concentrations and incubated for 1 h, and then determined for the binding ability with HEK293T-hROR1, CHO-K1-cynoROR1 and A549 cell lines (endogenously expressing ROR1), respectively. The secondary antibody was then incubated for 1 h. The results are shown in FIG. 4-6 and Table 7-2 below.

Human ROR1-ECD-his = biological target: T2, Human ROR1-ECD-his (human, UniProt Q01973 30-406); assay: ELISA, plate coated with hROR1 ECD-his
T2 construct: extracellular domain; bought, Acrobiosystems RO1-H522y; also called hROR1-ECD-his; hROR1 ECD-his
Procedure: (§2) Screening by ELISA assay: 96-well plates (Corning 9018) were coated with 1 μg/mL hROR1 ECD-his/hROR2 ECD-his/mROR1 ECD-his proteins prepared with PBS in Example 1a above and incubated at 4° C. overnight. The liquid was then discarded, and the plates were washed 3 times with PBST, blocked with 5% milk for 2 h at room temperature, and washed 3 times with PBST. The taken supernatant was added at 100 μL/well, and the plates were incubated at room temperature for 1 h, followed by washing 3 times with PBST. 100 μL/well of secondary antibody (Sigma, Cat#: A8592) was added, the plates were incubated at room temperature for 1 h, and then washed. TMB was then added to the plates at 100 μL/well and incubated for 15 min at room temperature. Thereafter, the reaction was terminated and data were read.
(§3) a. Results of ELISA assay (the ELISA assay was performed according to the same procedures as in Example 2c, except that the added samples were recombinant antibodies and the secondary antibody was a-Fc (Genscript, Cat#: A01854))

[3] = biological target: T3, ROR1 (antigen of the KD determination and of the Octet dissociation measurement) (UniProt Q01973 30-403, limits assumed); assay: method not stated (conventional procedures)
[4] = biological target: T1, human ROR1 (hROR1) on cells; assay: FACS, A549 cells
Procedure: as §1

[5] = biological target: T1, human ROR1 (hROR1) on cells; assay: cell-based or functional assay; remark: listed apart in the source
[6] = biological target: T1, human ROR1 (hROR1) on cells; assay: flow cytometry (FACS) on A549 cells (endogenous ROR1), antibody 0.01-100 nM, median fluorescence intensity
Procedure: as §1

[7] = biological target: T4, cynomolgus ROR1 (cynoROR1) on CHO-K1 cells (cynomolgus, UniProt A0A2K5WTX7 30-937); assay: flow cytometry (FACS) on CHO-K1-cynoROR1 cells, antibody 0.01-100 nM, median fluorescence intensity
T4 construct: whole, on cells; also called CHO-K1-cynoROR1; CHO-K1-cyROR1
Procedure: as §1

hROR2ECD-his [8] = biological target: T5, hROR2ECD-his (human, UniProt Q01974 34-403); assay: ELISA, plate coated with hROR2 ECD-his
T5 construct: extracellular domain; bought, Acrobiosystems R02-H52E5; also called huROR2-his
Procedure: as §2, §3

[9] = biological target: T4, cynomolgus ROR1 (cynoROR1) on CHO-K1 …; assay: flow cytometry (FACS) on CHO-K1-cynoROR1 cells, antibody 0.01-100 nM, median fluorescence intensity; remark: listed apart in the source
Procedure: as §1

[10] = biological target: T4, cynomolgus ROR1 (cynoROR1) on CHO-K1 …; assay: FACS, CHO-K1-cynoROR1 cells
Procedure: as §1

[11] = biological target: T1, human ROR1 (hROR1) on cells; assay: FACS, HEK293T-hROR1 cells; cytometer saturated
Procedure: as §1

[12] = biological target: T1, human ROR1 (hROR1) on cells; assay: FACS, HEK293T-hROR1 cells
[13] = biological target: T1, human ROR1 (hROR1) on cells; assay: FACS, Panc-1 cells
[14] = biological target: T1, human ROR1 (hROR1) on cells; assay: FACS, HEK293T-hROR1 cells; remark: listed apart in the source
Procedure: as §1

hROR2ECD-his [15] = biological target: T5, hROR2ECD-his; assay: ELISA, plate coated with hROR2 ECD-his; remark: listed apart in the source
Procedure: as §2, §3
The corresponding values in the table are the measured median fluorescence intensity (MFI).

[16] = biological target: T3, ROR1 (antigen of the KD determination …); assay: Octet, antigen form not stated

T1 sequence (Q01973 30-937): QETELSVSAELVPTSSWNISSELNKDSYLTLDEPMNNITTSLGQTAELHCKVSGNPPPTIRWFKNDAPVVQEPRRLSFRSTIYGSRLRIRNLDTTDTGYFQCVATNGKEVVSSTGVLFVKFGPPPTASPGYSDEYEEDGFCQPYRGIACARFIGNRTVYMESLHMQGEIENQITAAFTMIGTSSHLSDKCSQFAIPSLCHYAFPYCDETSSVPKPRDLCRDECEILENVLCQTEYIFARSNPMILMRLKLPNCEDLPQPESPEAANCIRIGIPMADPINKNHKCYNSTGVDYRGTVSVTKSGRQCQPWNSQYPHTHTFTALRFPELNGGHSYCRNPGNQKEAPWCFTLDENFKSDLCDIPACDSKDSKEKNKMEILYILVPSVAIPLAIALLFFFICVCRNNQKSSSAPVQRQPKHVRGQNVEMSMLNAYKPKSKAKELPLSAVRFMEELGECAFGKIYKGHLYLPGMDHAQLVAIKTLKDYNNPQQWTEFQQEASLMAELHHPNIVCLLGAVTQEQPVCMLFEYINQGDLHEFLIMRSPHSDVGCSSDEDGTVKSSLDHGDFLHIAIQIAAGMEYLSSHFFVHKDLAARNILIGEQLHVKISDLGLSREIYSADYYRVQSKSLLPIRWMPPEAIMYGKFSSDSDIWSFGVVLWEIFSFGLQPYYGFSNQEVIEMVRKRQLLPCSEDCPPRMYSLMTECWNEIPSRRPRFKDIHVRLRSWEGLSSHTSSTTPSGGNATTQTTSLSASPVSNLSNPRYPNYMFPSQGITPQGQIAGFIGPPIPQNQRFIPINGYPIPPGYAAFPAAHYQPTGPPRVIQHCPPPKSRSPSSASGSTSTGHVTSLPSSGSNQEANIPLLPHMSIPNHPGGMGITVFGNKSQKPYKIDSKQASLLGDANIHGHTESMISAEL
T3 sequence (Q01973 30-403 limits assumed): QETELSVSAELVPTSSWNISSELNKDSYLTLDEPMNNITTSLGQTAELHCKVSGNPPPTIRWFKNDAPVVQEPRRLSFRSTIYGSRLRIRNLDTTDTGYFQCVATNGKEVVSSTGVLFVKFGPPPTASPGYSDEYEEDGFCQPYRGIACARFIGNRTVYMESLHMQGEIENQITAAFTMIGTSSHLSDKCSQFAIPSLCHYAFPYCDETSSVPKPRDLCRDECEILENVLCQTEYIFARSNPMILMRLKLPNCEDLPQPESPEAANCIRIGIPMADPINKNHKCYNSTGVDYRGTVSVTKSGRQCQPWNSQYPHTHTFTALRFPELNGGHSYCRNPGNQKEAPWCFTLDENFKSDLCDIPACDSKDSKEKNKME
T2 sequence (Q01973 30-406): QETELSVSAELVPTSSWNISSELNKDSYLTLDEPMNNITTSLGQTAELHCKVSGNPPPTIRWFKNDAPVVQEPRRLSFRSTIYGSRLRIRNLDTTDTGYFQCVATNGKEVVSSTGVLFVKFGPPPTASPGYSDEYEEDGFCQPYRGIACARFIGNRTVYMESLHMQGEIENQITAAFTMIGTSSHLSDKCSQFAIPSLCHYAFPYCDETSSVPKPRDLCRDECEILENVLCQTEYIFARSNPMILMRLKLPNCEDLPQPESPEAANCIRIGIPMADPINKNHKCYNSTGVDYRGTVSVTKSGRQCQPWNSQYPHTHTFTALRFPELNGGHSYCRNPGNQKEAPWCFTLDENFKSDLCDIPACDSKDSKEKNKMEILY
T5 sequence (Q01974 34-403): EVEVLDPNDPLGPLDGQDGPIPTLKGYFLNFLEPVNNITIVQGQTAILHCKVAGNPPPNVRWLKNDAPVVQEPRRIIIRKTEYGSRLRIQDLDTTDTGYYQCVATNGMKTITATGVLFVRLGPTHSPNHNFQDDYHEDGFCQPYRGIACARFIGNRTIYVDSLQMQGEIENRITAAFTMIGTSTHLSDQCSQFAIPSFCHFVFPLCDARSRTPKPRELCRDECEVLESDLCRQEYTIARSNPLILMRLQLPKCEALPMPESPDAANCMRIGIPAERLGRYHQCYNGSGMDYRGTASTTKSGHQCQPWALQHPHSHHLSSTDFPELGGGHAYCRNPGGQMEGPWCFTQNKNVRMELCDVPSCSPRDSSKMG

Row | Binder | ADCC Cytotoxicity (%), Donor 1, 1 nM [1] | ADCC Cytotoxicity (%), Donor 1, 10 nM [1] | ADCC Cytotoxicity (%), Donor 2, 1 nM [1] | ADCC Cytotoxicity (%), Donor 2, 10 nM [1] | ELISA signal (called MFI) (Human ROR1-ECD-his) | Kd [3] | koff [3] | kon [3] | MAX(MFI) [4] | endocytosis EC50(nM) (a-hFc-MMAF killing, CTG luminescence) [5] | EC50 (read off the curve) [7] | ELISA signal (called MFI) (hROR2ECD-his [8]) | MAX(MFI) [10] | MAX(MFI) [11] | fold lower EC50 than reference PR000374 [14] | binding result (hROR2ECD-his [15]) | other results
1 | B1 | 14.4% | 25.4% | 11.4% | 18.2% | 2.48 | 0.397 nM | 0.000173 s⁻¹ | 437000 M⁻¹ s⁻¹ | 3850 MFI | 0.243 nM | ~3 nM | 0.022 | 31900 MFI | 262000 MFI |  |  | EC50 (read off the curve) [2]: ~9 nM; EC50 (read off the curve) [6]: ~3 nM; EC50 (read off the curve) [9]: ~5 nM
2 | B2 | 33.5% | 34.7% | 14.4% | 15.9% | 2.44 | 1.13 nM | 0.000383 s⁻¹ | 339000 M⁻¹ s⁻¹ | 4300 MFI | 0.143 nM |  | 0.027 | 27000 MFI | 262000 MFI | 10 fold | no binding | MFI [12]: 42800 MFI; MFI [13]: 6700 MFI; Response [16]: 0.609; koff [16]: 0.000117 s⁻¹
3 | B3 | 13.9% | 26.9% | 13.2% | 19.2% | 2.22 | 45.4 nM | 0.0136 s⁻¹ | 300000 M⁻¹ s⁻¹ | 3750 MFI |  | ~2 nM | 0.032 | 17700 MFI | 262000 MFI | 10 fold | no binding | 
